In publication PMC7022206 one finds Kd data, which are given here for 1 substance.

Assay [1] deals with Cysteine-tagged FG domain of human Nup153 (human). Kind of assay: SPR. Background: SPR reads the build-up and loss of mass on a sensor chip optically.
Assay [2] concerns the target NLS-conjugated polymersome nanocarriers (bipartite nucleoplasmin NLS peptide on PMOXA-PDMS-PMOXA polymersomes). As to the kind of experiment: dual-color fluorescence lifetime cross-correlation spectroscopy.

Bounds are passed on as bounds.

Turning to “Kapα•Kapβ1 (from UniProt P52292;Q14974) (complex)”, the Kd was 24.8 nM in assay [1] and below 0.4 nM in assay [2].

By Kd is commonly meant the free concentration of one partner at which half of the binding sites on the other are occupied at equilibrium, for simple one-to-one binding. High values mean lower affinity, low ones higher affinity.
